Legend:
[1] = Ex vivo biodistribution in LNCaP tumor-bearing SCID mice; conditions: mouse, in vivo, 50 kBq per mouse; for tissue uptake at 1 h: 1 h p.i.; for tissue uptake at 4 h: 4 h p.i.; for tissue uptake at 24 h: 24 h p.i.; for tissue uptake at 48 h: 48 h p.i.; for tissue uptake at 72 h: 72 h p.i.; for tissue uptake at 120 h: 120 h p.i.; for tissue uptake at 168 h: 168 h p.i.
From the text: (§1) The biodistribution experiments with [^225Ac]Ac-mcp-M-alb-PSMA and [^225Ac]Ac-mcp-D-alb-PSMA were accomplished using LNCaP tumor-bearing mice. The SCID male mice (ENVIGO, Indianapolis, IN, USA) 8 weeks old were subcutaneously xenografted into the right flank with 10∙10^6 LNCaP cells (ATCC, Manassas, VA, USA) mixed with Matrigel Matrix (Corning Inc., Corning, NY, USA) at a 1:1 ratio. The tumor growth was periodically monitored by caliper-based measurements. When the tumor volume reached 200-300 mm^3 (i.e., approx. 6 weeks after the xenografting of the cells), the mice were enrolled in the biodistribution study. All experimental animals were housed in a specific-pathogen-free animal facility and all experiments with animals were performed in accordance with appropriate legal norms (Czech Law No. 246/1992) and with the approval of the Ministry of Education, Youth and Sports (MSMT-35035/2019-3) and approval of the Ethical committee of Faculty of Medicine and Dentistry, Palacky University in Olomouc. The number of animals was reduced as much as possible (n = 3-4 per group and time point) for in vivo experiments in order to strictly follow 3Rs principle.
(§2) For the purpose of biodistribution studies, the ^225Ac-radioconjugates were diluted with saline. The diluted ^225Ac-radioconjugates were applied retro-orbitally (r.o.) to the experimental animals at a dose of 50 kBq per mouse corresponding to 10 pmol of the PSMA-inhibitor. The radioactivity application was carried out under 2% isoflurane anesthesia (FORANE, Abbott Laboratories, Abbott Park, IL, USA) to minimize animal suffering and to prevent animal motion. The mice were sacrificed by cervical dislocation 1, 4, 24, 48, 72, and 120 h (plus 168 h for [^225Ac]Ac-mcp-D-alb-PSMA) post-injection and organs of interest (blood, spleen, pancreas, stomach, intestine, kidneys, liver, heart, lungs, muscle, bone, and tumor) were collected. The organs were weighed, and their radioactivity was counted on an automatic gamma counter. The uptake of the ^225Ac-radioconjugates was expressed as a percentage of injected dose per gram of the corresponding organ (%ID/g). The area under the curve (AUC) was determined for both tested PSMA ligands from non-decay-corrected data obtained from the ex vivo biodistribution data of the tumors, kidneys, and blood.

[2] = tested on: LNCaP tumor-bearing SCID mice; assay: as above
From the text: as §1, §2

[3] = non-decay corrected biodistribution data, mean ± SD

In the case of `O=C(O)CC[C@H](NC(=O)N[C@@H](CCCCNC(=O)[C@H](Cc1ccc2ccccc2c1)NC(=O)[C@H]1CC[C@H](CNC(=O)[C@H](CCCCn2cc(COc3cc(CN4CCOCCOCCN(Cc5cc(OCc6cn(CCCC[C@H](NC(=O)[C@H](CCC(=O)O)NC(=O)CCCc7ccc(I)cc7)C(=O)NC[C@H]7CC[C@H](C(=O)N[C@@H](Cc8ccc9ccccc9c8)C(=O)NCCCC[C@H](NC(=O)N[C@@H](CCC(=O)O)C(=O)O)C(=O)O)CC7)nn6)cc(C(=O)O)n5)CCOCCOCC4)nc(C(=O)O)c3)nn2)NC(=O)[C@H](CCC(=O)O)NC(=O)CCCc2ccc(I)cc2)CC1)C(=O)O)C(=O)O` [[^225Ac]Ac-mcp-D-alb-PSMA, metal not drawn], the tissue to tissue ratio ([1]; male, SCID, total radioactivity) is reported as 1420, the tissue uptake at 1 h ([1]; blood uptake (AV)) is reported as 8.44 %ID/g and the tissue uptake at 4 h ([1]; blood uptake (AV)) is reported as 6.5 %ID/g. For the same compound, the tissue uptake at 24 h ([1]; blood uptake (AV)) was 2.85 %ID/g, the tissue uptake at 48 h ([1]; blood uptake (AV)) was 1.22 %ID/g and the tissue uptake at 72 h ([1]; blood uptake (AV)) was 0.7 %ID/g. It also gave a tissue uptake at 120 h ([1]; blood uptake (AV)) of 0.2 %ID/g, a tissue uptake at 168 h ([1]; blood uptake (AV)) of 0.11 %ID/g and a tissue uptake at 1 h ([1]; femur uptake (AV)) of 0.84 %ID/g. It also gave a tissue uptake at 4 h ([1]; femur uptake (AV)) of 0.89 %ID/g, a tissue uptake at 24 h ([1]; femur uptake (AV)) of 0.74 %ID/g and a tissue uptake at 48 h ([1]; femur uptake (AV)) of 0.96 %ID/g. The tissue uptake at 72 h ([1]; femur uptake (AV)) was 0.87 %ID/g, the tissue uptake at 120 h ([1]; femur uptake (AV)) was 1.22 %ID/g and the tissue uptake at 168 h ([1]; femur uptake (AV)) was 1.3 %ID/g. For the same compound, the tissue uptake at 1 h ([1]; heart uptake (AV)) was 2.47 %ID/g, the tissue uptake at 4 h ([1]; heart uptake (AV)) was 2.32 %ID/g and the tissue uptake at 24 h ([1]; heart uptake (AV)) was 1.21 %ID/g. For the same compound, the tissue uptake at 48 h ([1]; heart uptake (AV)) was 0.94 %ID/g, the tissue uptake at 72 h ([1]; heart uptake (AV)) was 0.82 %ID/g and the tissue uptake at 120 h ([1]; heart uptake (AV)) was 0.88 %ID/g. The tissue uptake at 168 h ([1]; heart uptake (AV)) was 0.83 %ID/g, the tissue uptake at 1 h ([1]; intestine uptake (AV)) was 0.8 %ID/g and the tissue uptake at 4 h ([1]; intestine uptake (AV)) was 0.64 %ID/g. It also gave a tissue uptake at 24 h ([1]; intestine uptake (AV)) of 0.58 %ID/g, a tissue uptake at 48 h ([1]; intestine uptake (AV)) of 0.37 %ID/g and a tissue uptake at 72 h ([1]; intestine uptake (AV)) of 0.26 %ID/g. The tissue uptake at 120 h ([1]; intestine uptake (AV)) was 0.19 %ID/g, the tissue uptake at 168 h ([1]; intestine uptake (AV)) was 0.17 %ID/g and the tissue uptake at 1 h ([1]; kidneys uptake (AV)) was 9.23 %ID/g. For the same compound, the tissue uptake at 4 h ([1]; kidneys uptake (AV)) was 21.8 %ID/g, the tissue uptake at 24 h ([1]; kidneys uptake (AV)) was 43.7 %ID/g and the tissue uptake at 48 h ([1]; kidneys uptake (AV)) was 59.9 ± 6.46 %ID/g. For the same compound, the tissue uptake at 72 h ([1]; kidneys uptake (AV)) was 50.1 %ID/g, the tissue uptake at 120 h ([1]; kidneys uptake (AV)) was 37.6 %ID/g and the tissue uptake at 168 h ([1]; kidneys uptake (AV)) was 33.7 ± 9.57 %ID/g. It also gave a tissue uptake at 1 h ([1]; liver uptake (AV)) of 2.42 %ID/g, a tissue uptake at 4 h ([1]; liver uptake (AV)) of 2.45 %ID/g and a tissue uptake at 24 h ([1]; liver uptake (AV)) of 2.52 %ID/g. The tissue uptake at 48 h ([1]; liver uptake (AV)) was 3.73 %ID/g, the tissue uptake at 72 h ([1]; liver uptake (AV)) was 3.39 %ID/g and the tissue uptake at 120 h ([1]; liver uptake (AV)) was 3.9 %ID/g. For the same compound, the tissue uptake at 168 h ([1]; liver uptake (AV)) was 4.31 %ID/g, the tissue uptake at 1 h ([1]; lung uptake (AV)) was 5.67 %ID/g and the tissue uptake at 4 h ([1]; lung uptake (AV)) was 4.57 %ID/g. The tissue uptake at 24 h ([1]; lung uptake (AV)) was 2.3 %ID/g, the tissue uptake at 48 h ([1]; lung uptake (AV)) was 2.75 %ID/g and the tissue uptake at 72 h ([1]; lung uptake (AV)) was 2.98 %ID/g. The tissue uptake at 120 h ([1]; lung uptake (AV)) was 7.5 %ID/g, the tissue uptake at 168 h ([1]; lung uptake (AV)) was 4.95 %ID/g and the tissue uptake ([1]; maximal uptake in spleen) was 11.4 ± 2.89 %ID/g. It also gave a tissue uptake at 1 h ([1]; muscle uptake (AV)) of 0.49 %ID/g, a tissue uptake at 4 h ([1]; muscle uptake (AV)) of 0.58 %ID/g and a tissue uptake at 24 h ([1]; muscle uptake (AV)) of 0.28 %ID/g. It also gave a tissue uptake at 48 h ([1]; muscle uptake (AV)) of 0.29 %ID/g, a tissue uptake at 72 h ([1]; muscle uptake (AV)) of 0.2 %ID/g and a tissue uptake at 120 h ([1]; muscle uptake (AV)) of 0.24 %ID/g. For the same compound, the tissue uptake at 168 h ([1]; muscle uptake (AV)) was 0.22 %ID/g, the tissue uptake at 1 h ([1]; pancreas uptake (AV)) was 0.68 %ID/g and the tissue uptake at 4 h ([1]; pancreas uptake (AV)) was 0.58 %ID/g. For the same compound, the tissue uptake at 24 h ([1]; pancreas uptake (AV)) was 0.5 %ID/g, the tissue uptake at 48 h ([1]; pancreas uptake (AV)) was 0.35 %ID/g and the tissue uptake at 72 h ([1]; pancreas uptake (AV)) was 0.39 %ID/g. The tissue uptake at 120 h ([1]; pancreas uptake (AV)) was 0.42 %ID/g, the tissue uptake at 168 h ([1]; pancreas uptake (AV)) was 0.37 %ID/g and the tissue uptake at 1 h ([1]; spleen uptake (AV)) was 7.11 %ID/g. For the same compound, the tissue uptake at 4 h ([1]; spleen uptake (AV)) was 6.21 %ID/g, the tissue uptake at 24 h ([1]; spleen uptake (AV)) was 5.24 %ID/g and the tissue uptake at 48 h ([1]; spleen uptake (AV)) was 8.33 %ID/g. For the same compound, the tissue uptake at 72 h ([1]; spleen uptake (AV)) was 10.2 %ID/g, the tissue uptake at 120 h ([1]; spleen uptake (AV)) was 10 %ID/g and the tissue uptake at 168 h ([1]; spleen uptake (AV)) was 11.4 %ID/g. It also gave a tissue uptake at 1 h ([1]; stomach uptake (AV)) of 0.98 %ID/g, a tissue uptake at 4 h ([1]; stomach uptake (AV)) of 0.59 %ID/g and a tissue uptake at 24 h ([1]; stomach uptake (AV)) of 0.61 %ID/g. For the same compound, the tissue uptake at 48 h ([1]; stomach uptake (AV)) was 0.4 %ID/g, the tissue uptake at 72 h ([1]; stomach uptake (AV)) was 0.27 %ID/g and the tissue uptake at 120 h ([1]; stomach uptake (AV)) was 0.34 %ID/g. For the same compound, the tissue uptake at 168 h ([1]; stomach uptake (AV)) was 0.27 %ID/g, the tissue uptake at 1 h ([1]; tumor uptake (AV)) was 3.35 %ID/g and the tissue uptake at 4 h ([1]; tumor uptake (AV)) was 10.6 %ID/g. It also gave a tissue uptake at 24 h ([1]; tumor uptake (AV)) of 27.6 %ID/g, a tissue uptake at 48 h ([1]; tumor uptake (AV)) of 57.4 %ID/g and a tissue uptake at 72 h ([1]; tumor uptake (AV)) of 86.4 %ID/g. The tissue uptake at 120 h ([1]; tumor uptake (AV)) was 120 %ID/g, the tissue uptake at 168 h ([1]; tumor uptake (AV)) was 127 %ID/g and the “tumor uptake (AV)” value ([2]; 168 h p.i.) was 153.48 ± 37.76 %ID/g. The “AUC for tumor accumulation compared to monovalent counterpart” value ([2]; mouse, in vivo) was “almost double”, the AUCTu-to-AUCBl ([2]; mouse, in vivo) was 26 and the AUCTu-to-AUCKi ([2]; mouse, in vivo) was 1.4. The AUCTu-to-AUCLi ([2]; mouse, in vivo) was 20, the “AUCTu-to-AUCLi ratio compared with monovalent version of the ligand” value ([2]; mouse, in vivo) was 0.7 fold and the “blood clearance: duration of excretion” value ([2]; mouse, in vivo) was 72 h. The “maximal tumor uptake compared to counterpart without dedicated albumin binder” value ([2]; mouse, in vivo) was “twelve times higher”, the “AUC Blood” value [2, 3] was 249 ± 10.4 %ID/g.h and the “AUC Kidneys” value [2, 3] was 4519 ± 193 %ID/g.h. The “AUC Liver” value [2, 3] was 328 ± 15.8 %ID/g.h and the “AUC Tumor” value [2, 3] was 6455 ± 411 %ID/g.h.

Source: publication PMC9691366, “Modulating the pharmacokinetic profile of Actinium-225-labeled macropa-derived radioconjugates by dual targeting of PSMA and albumin” (Theranostics, 2022)
